# The supplement of paper PMC10567573
# B1: INTS3 (parent)
# chain: YPPLEGHVRQGVFSSLNHIVEKRV
# Variants of: B1
# Test: protein stability index of a GFP-peptide fusion (GPS, HEK-293T) (PSI 1-6); higher = more stable
# Conditions: c terminus: a fixed tail appended
# 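Further: lentivirally expressed fusions sorted by FACS into six bins by GFP to DsRed ratio, PSI derived from sequencing read proportions per bin multiplied by bin number.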
row,Variant,protein stability index
1,YPPLEGHVTQGVFSSLNHIVEKRV,2.13
2,YPPLEGHVIQGVFSSLNHIVEKRV,1.38
3,YPPLEGHVEQGVFSSLNHIVEKRV,3.52
4,YPPLEGHVWQGVFSSLNHIVEKRV,1.72
5,YPPLEGHVMQGVFSSLNHIVEKRV,2.47
6,YPPLEGHVSQGVFSSLNHIVEKRV,2.51
7,YPPLEGHVLQGVFSSLNHIVEKRV,2.07
8,YPPLEGHVAQGVFSSLNHIVEKRV,3.24
9,YPPLEGHVYQGVFSSLNHIVEKRV,1.92
10,YPPLEGHVDQGVFSSLNHIVEKRV,3.42
11,YPPLEGHVHQGVFSSLNHIVEKRV,2.96
12,YPPLEGHVQQGVFSSLNHIVEKRV,3.28
13,YPPLEGHVCQGVFSSLNHIVEKRV,2.06
14,YPPLEGHVNQGVFSSLNHIVEKRV,2.75
15,YPPLEGHVPQGVFSSLNHIVEKRV,2.77
16,YPPLEGHVFQGVFSSLNHIVEKRV,2.09
17,YPPLEGHVKQGVFSSLNHIVEKRV,2.94
18,YPPLEGHVVQGVFSSLNHIVEKRV,3.14
19,YPPLTGHVRQGVFSSLNHIVEKRV,1.96
20,YPPLHGHVRQGVFSSLNHIVEKRV,2.24
21,YPPLWGHVRQGVFSSLNHIVEKRV,1.9
22,YPPLGGHVRQGVFSSLNHIVEKRV,3.59
23,YPPLYGHVRQGVFSSLNHIVEKRV,1.87
24,YPPLQGHVRQGVFSSLNHIVEKRV,2.02

row,Variant,protein stability index
1,YPPLIGHVRQGVFSSLNHIVEKRV,1.73
2,YPPLLGHVRQGVFSSLNHIVEKRV,2.14
3,YPPLSGHVRQGVFSSLNHIVEKRV,1.84
4,YPPLDGHVRQGVFSSLNHIVEKRV,3.54
5,YPPLMGHVRQGVFSSLNHIVEKRV,2.24
6,YPPLCGHVRQGVFSSLNHIVEKRV,2.08
7,YPPLKGHVRQGVFSSLNHIVEKRV,2.1
8,YPPLVGHVRQGVFSSLNHIVEKRV,1.49
9,YPPLAGHVRQGVFSSLNHIVEKRV,2.52
10,YPPLPGHVRQGVFSSLNHIVEKRV,2.14
11,YPPLNGHVRQGVFSSLNHIVEKRV,2.05
12,YPPLFGHVRQGVFSSLNHIVEKRV,1.66
13,YPPLEDHVRQGVFSSLNHIVEKRV,2.81
14,YPPLEPHVRQGVFSSLNHIVEKRV,2.76
15,YPPLELHVRQGVFSSLNHIVEKRV,2.06
16,YPPLETHVRQGVFSSLNHIVEKRV,3.99
17,YPPLEMHVRQGVFSSLNHIVEKRV,2.51
18,YPPLEKHVRQGVFSSLNHIVEKRV,2.13
19,YPPLERHVRQGVFSSLNHIVEKRV,2.3
20,YPPLENHVRQGVFSSLNHIVEKRV,2.86
21,YPPLEQHVRQGVFSSLNHIVEKRV,2.74
22,YPPLESHVRQGVFSSLNHIVEKRV,2.73
23,YPPLEAHVRQGVFSSLNHIVEKRV,2.38
24,YPPLEEHVRQGVFSSLNHIVEKRV,3.51

row,Variant,protein stability index
1,YPPLECHVRQGVFSSLNHIVEKRV,2.39
2,YPPLEIHVRQGVFSSLNHIVEKRV,1.76
3,YPPLEHHVRQGVFSSLNHIVEKRV,2.98
4,YPPLEFHVRQGVFSSLNHIVEKRV,2.2
5,YPPLEWHVRQGVFSSLNHIVEKRV,2.65
6,YPPLEVHVRQGVFSSLNHIVEKRV,2.07
7,YPPLEYHVRQGVFSSLNHIVEKRV,2.38
8,YPPLEGHCRQGVFSSLNHIVEKRV,2.86
9,YPPLEGHIRQGVFSSLNHIVEKRV,2.38
10,YPPLEGHFRQGVFSSLNHIVEKRV,2.23
11,YPPLEGHPRQGVFSSLNHIVEKRV,2.31
12,YPPLEGHMRQGVFSSLNHIVEKRV,2.46
13,YPPLEGHWRQGVFSSLNHIVEKRV,1.78
14,YPPLEGHKRQGVFSSLNHIVEKRV,2.84
15,YPPLEGHLRQGVFSSLNHIVEKRV,2.13
16,YPPLEGHTRQGVFSSLNHIVEKRV,3
17,YPPLEGHQRQGVFSSLNHIVEKRV,2.85
18,YPPLEGHSRQGVFSSLNHIVEKRV,3
19,YPPLEGHERQGVFSSLNHIVEKRV,3.53
20,YPPLEGHNRQGVFSSLNHIVEKRV,2.55
21,YPPLEGHDRQGVFSSLNHIVEKRV,3.25
22,YPPLEGHYRQGVFSSLNHIVEKRV,2.21
23,YPPLEGHARQGVFSSLNHIVEKRV,2.46
24,YPPLEGHHRQGVFSSLNHIVEKRV,2.48

row,Variant,protein stability index
1,YPPLEGHGRQGVFSSLNHIVEKRV,2.19
2,YPPLEGHRRQGVFSSLNHIVEKRV,2.75
3,YPPLEGHVRFGVFSSLNHIVEKRV,2.62
4,YPPLEGHVRAGVFSSLNHIVEKRV,2.19
5,YPPLEGHVRDGVFSSLNHIVEKRV,3.18
6,YPPLEGHVRCGVFSSLNHIVEKRV,2.73
7,YPPLEGLVRQGVFSSLNHIVEKRV,2.2
8,YPPLEGVVRQGVFSSLNHIVEKRV,2.37
9,YPPLEGPVRQGVFSSLNHIVEKRV,2.01
10,YPPLEGGVRQGVFSSLNHIVEKRV,2.3
11,YPPLEGIVRQGVFSSLNHIVEKRV,2.21
12,YPPLEGDVRQGVFSSLNHIVEKRV,2.79
13,YPPLEGSVRQGVFSSLNHIVEKRV,2.97
14,YPPLEGRVRQGVFSSLNHIVEKRV,2.22
15,YPPLEGQVRQGVFSSLNHIVEKRV,2.36
16,YPPLEGKVRQGVFSSLNHIVEKRV,2.21
17,YPPLEGAVRQGVFSSLNHIVEKRV,2.68
18,YPPLEGNVRQGVFSSLNHIVEKRV,3.13
19,YPPLEGTVRQGVFSSLNHIVEKRV,2.56
20,YPPLEGFVRQGVFSSLNHIVEKRV,2.42
21,YPPLEGYVRQGVFSSLNHIVEKRV,1.47
22,YPPYEGHVRQGVFSSLNHIVEKRV,1.83
